Laboratory results as given in patent US20210087250A1, “PHARMACEUTICAL COMPOSITIONS FOR THE TRANSMUCOSAL DELIVERY OF THERAPEUTIC PEPTIDES AND PROTEINS” (CYPRUMED GMBH, priority 2018, published 2021).
Where two headings read alike, the source gives them in different places. One block for each molecule: values may come before it.

Key:
[1] = tested on: human nasal cell line RPMI 2650; assay: Permeation of semaglutide through human nasal cells; assay type: in vitro ADME; details: 0.5 mg/ml semaglutide in KRB with 5% arginine HCl versus KRB only
Procedure: All permeation studies were performed with RPMI 2650 models after 3 weeks of cultivation. Furthermore, the whole equipment was pre-warmed to 37° C. All steps were performed at 37° C. Prior to permeation, TEER values were measured using EVOM® combined with Endohm® Chamber from World Precision Instruments (WPI, Sarasota, Fla., US).
RPMI models were incubated for 60 min in KRB. Meanwhile sample solution containing excipients and active pharmaceutical ingredients were prepared. Subsequent to the incubation period, TEER values were determined again.
Before permeation, the KRB was removed from both sides of the RPMI models and 1200 μL KRB as acceptor volume were added. Then, 200 μL of the formulations (containing 0.5 mg/ml of Semaglutide each; reference formulation in KRB only, sample formulation in KRB containing 5% of arginine HCl) were applied to the apical surface of each RPMI model. With this step the permeation time was started. After two hours of exposition the acceptor was entirely removed, transferred to Eppendorf tubes and replaced by 1200 μL pre-warmed KRB. Four hours after starting the experiment the total amount of the acceptor was withdrawn again. During permeation the cell culture plates were shaken horizontally with 200 U/min at 37° C.

RPMI 2650 cells = assay: CellTiter 96 AQueous One Solution cell proliferation cytotoxicity assay (MTS); assay type: cell-based, human; details: 2.5% and 5.0% (m/V) in KRB, up to 120 min
Procedure: CellTiter 96® AQueous One Solution Cell proliferation Assay from Promega (Mannheim, Germany) is a colorimetric method for determining the number of viable cells in a cytotoxicity assay. The MTS tetrazolium compound is bioreduced by viable cells in a colored formazan product. The quantity of formazan is directly proportional to the number of living cells and can be measured by absorbance at 490 nm. This assay was performed to determinate cytotoxic effects of Arginine HCl in the concentrations of 2.5% and 5.0% (m/V) on RPMI 2650 cells.
RPMI 2650 cells were seeded onto a 96-well tissue culture test plate at a density of 60,000 cells per well for 24 h. Arginine HCl was dissolved in KRB. Medium was removed from the cells and replaced by 100 μL excipient solutions per well. Cells were incubated with excipient solutions for 0 min, 15 min, 30 min, 60 min and 120 min. Furthermore, cells were incubated with KRB, 1.0% Triton-X solution (V/V) for the same incubation periods as negative and positive controls, respectively. Bacitracin (BAC) served as reference.
The CellTiter 96® AQueous One Solution Cell proliferation Assay was carried out following the manufacturer's protocol. […]
After the incubation period the samples were analyzed immediately. Absorbance was recorded at 490 nm and measured by using a microplate reader Infinite® M Plex (Tecan, Switzerland).

MDCK cells = assay: Transepithelial electrical resistance (TEER) measurement; assay type: cell-based; details: 2.5% and 5%
Procedure: The cellZscope from nanoAnalytics (Munster, Germany) was used for continuous evaluation of TEER as a surrogate parameter of tight junction functionality. MDCK cells were grown on 1.12 cm^2, 1.0 μm transparent filter inserts (ThinCerts™, Greiner Bio-One, Frickenhausen, Germany) with a seeding density of 100,000 cells per well. The medium was changed at cultivation days 3, 4 and 5. TEER measurements were performed on day 5 when cells reached a resistance of approximately 3,500 Ω·cm^2 starting with the replacement of the growth medium by an equivalent volume of KRB, pH 7.4 (500 μL apical, 1,500 μL basolateral) and cell incubation for 60 min. After this preincubation, 250 μL of KRB was removed from the insert, and the same volume of double-concentrated sample solution (Arginine HCl in KRB) was added to the 250 μL KRB inside the insert to reach the desired concentration. Afterwards, impedance measurements were performed for 180 min with a frequency range of 1 Hz to 100 kHz at 37° C. and 5% CO2 inside the incubator.
Subsequently, the cells were carefully washed with fresh KRB and incubated in medium, and TEER was monitored up to 24 h in 30 min time intervals after the start of the experiment to evaluate TEER recovery. The results (shown in FIG. 7) are given as the relative TEER reduction, defined as the percentage change of the starting value corrected by the baseline value.

[2] = biological target: T1, PTH(1-34) (Homo sapiens (Human)) (UniProt P01270)
T1 sequence (peptide): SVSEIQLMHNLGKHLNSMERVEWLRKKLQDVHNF

desmopressin [3] = biological target: desmopressin
[4] = biological target: T1, PTH(1-34) (Homo sapiens (Human)); remark: listed apart in the source
desmopressin [5] = biological target: desmopressin; remark: listed apart in the source
[6] = biological target: T1, PTH(1-34) (Homo sapiens (Human)); remark: listed apart in the source

% intact PTH(1-34) [4]: 0% | Peptide recovery (desmopressin [5]): 20%
Molecule: pancreatin (pool or library)

Intact PTH(1-34) [6]: 0%
Molecule: pepsin (enzyme)

Further lines, the molecule ahead of its results:

Molecule: Cl.N=C(N)NCCC[C@H](N)C(=O)O [arginine HCl, arginine hydrochloride]
permeation of semaglutide across human nasal cells [1]: improves the permeation of semaglutide | cell viability (RPMI 2650 cells): Only a minor decrease in cell viability | TEER (MDCK cells; 180 min): strong decrease in TEER | reversibility of tight junction opening (TEER recovery) (MDCK cells; up to 24 h): fully reversible

Molecule: trypsin (enzyme)
Intact PTH(1-34) [2]: 0% | % intact Adalimumab (adalimumab): 82%

Molecule: chymotrypsin (enzyme)
Intact desmopressin after 5 hours incubation (%) (desmopressin [3]): 7%
